Experimental findings from PMC4756369 (2016) are described below.

Test [1] concerns the target F-actin (skeletal muscle, phalloidin stabilized) (Oryctolagus cuniculus, UniProt P68135). Put plainly: co-sedimentation.
For test [2], the target named is F-actin (skeletal muscle) (Oryctolagus cuniculus, UniProt P68135). Put plainly: co-sedimentation.

A word on the Kd: it is the free concentration of one partner at which half of the binding sites on the other are occupied at equilibrium, for simple one-to-one binding.

B1: β-III-spectrin ABD 1-284 (protein)
chain: MSSTLSPTDFDSLEIQGQYSDINNRWDLPDSDWDNDSSSARLFERSRIKALADEREAVQKKTFTKWVNSHLARVTCRVGDLYSDLRDGRNLLRLLEVLSGEILPKPTKGRMRIHCLENVDKALQFLKEQKVHLENMGSHDIVDGNHRLTLGLVWTIILRFQIQDISVETEDNKEKKSAKDALLLWCQMKTAGYPNVNVHNFTTSWRDGLAFNAIVHKHRPDLLDFESLKKCNAHYNLQNAFNLAEKELGLTKPLDPEDVNVDQPDEKSIITYVATYYHYFSKMK
Molecule B1 gave a Kd in test [1] of 0.0755 µM.

B2: β-III-spectrin ABD 1-284 (protein)
chain: MSSTLSPTDFDSLEIQGQYSDINNRWDLPDSDWDNDSSSARLFERSRIKALADEREAVQKKTFTKWVNSHLARVTCRVGDLYSDLRDGRNLLRLLEVLSGEILPKPTKGRMRIHCLENVDKALQFLKEQKVHLENMGSHDIVDGNHRLTLGLVWTIILRFQIQDISVETEDNKEKKSAKDALLLWCQMKTAGYPNVNVHNFTTSWRDGLAFNAIVHKHRPDLLDFESLKKCNAHYNLQNAFNLAEKELGLTKLLDPEDVNVDQPDEKSIITYVATYYHYFSKMK
B2: binding in test [2] was put at a Kd of 75.8 µM.
